Data as given in paper doi:10.1101/2020.10.14.338756.

Columns and labels:
[1] = molecular target: BPTI_A16S, displayed on yeast (bovine)
[2] = molecular target: BPTI_K15A, displayed on yeast (bovine)
[3] = molecular target: BPTI_K15R, displayed on yeast (bovine)

- ΔΔG bind against BPTIWT [1]: 4.5 kcal/mol
- ΔΔG bind against BPTIWT [2]: 11.1 kcal/mol
- ΔΔG bind against BPTIWT [3]: -1.4 kcal/mol
Substance: Bovine trypsin (enzyme)
